B1: 8I21 (antibody, V domains shown)
VH: LVELVESGGGVVQPGRSLRLSCAASGFTFSSDGMHWVRQSPGRGLEWVAFISSDGSTPYYADSVKGRFTISRDNSKNTLYLQMNSLRAEDTAMYFCAKDWALFRWLRTFDHWGQGTLVTVSS
VL: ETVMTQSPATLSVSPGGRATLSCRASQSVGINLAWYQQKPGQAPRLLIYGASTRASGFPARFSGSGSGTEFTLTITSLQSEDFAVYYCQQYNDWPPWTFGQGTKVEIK
notes: human IgG; also called 8I21-biotin
B2: 15D8 (antibody, V domains shown)
VH: EVQLVQSGAEVKKPGESLKISCQASGYSFTNYWIAWVRQMPGKGLEWMGIIYPGDSDIKYSPSFRGQVTISADKSISNAFLQWRSLRASDTAMYYCARHAIRGDGFDYWGQGTLVTVSS
VL: SYELTQPPSVSVSPGQTATITCSGDKLGEKYACWYQQKPGQSPVLVMYQDTKRPSGIPERFSGSNSGNTATLTISGTRAMDEADYYCQAWDTNTVIFGGGTKLTVL
notes: human IgG; also called 15D8-biotin
B3: 6L3 (antibody, V domains shown)
VH: EVRLEESGGGLVQPGGSLRLSCAASGFTVSTTYMAWVRQAPGKGLEWVSLIHTGGIFGVGGTSYADSVKGRFTISRDTSKNTVSLQMSSLRVEDTAIYFCAREHRGTIDAFDAWGQGTVVIVSS
VL: DIHMTQSPSSLSASVGDRVTITCRASQNIRNYLNWYQHKPGKAPKLLIYTTSRLQSGVPSRFSGSGSGTDFTLTVNSLQPEDFASYYCQQSYDGWTFGQGTKVEMK

Assays:
[1] = molecular target: T1, hCMV gH + gL + UL128 + UL130 (HEK293T co-transfectant) (hCMV, UniProt P12824 24-743; P16832 31-278; P16837 28-171; P16772 1-214); assay: cell-based or functional assay
[2] = molecular target: T1, hCMV gH + gL + UL128 + UL130 (HEK293T …); assay: cell-based or functional assay; remark: listed apart in the source
[3] = molecular target: T2, hCMV gH + gL + UL128 + UL130 + UL131A (5-member complex; HEK293T co-transfectant) (hCMV, UniProt P12824 24-743; P16832 31-278; P16837 1-171; P16772 1-214); assay: cell competition; competitor 2F4-biotin
T2 construct: whole, on cells; in the functional rows it stands for the complex on virions or transduced cells of the strain or isolate named in the readout; also called gH/gL/UL128-131A complex; pentameric complex

[4] = molecular target: T2, hCMV gH + gL + UL128 + UL130 + UL131A …; assay: cell competition; competitor 5A2-biotin
[5] = molecular target: T2, hCMV gH + gL + UL128 + UL130 + UL131A …; assay: cell competition; competitor 6G4-biotin
[6] = molecular target: T2, hCMV gH + gL + UL128 + UL130 + UL131A …; assay: cell competition; competitor 15D8-biotin
[7] = molecular target: T2, hCMV gH + gL + UL128 + UL130 + UL131A …; assay: cell competition; competitor 1F11-biotin
[8] = molecular target: T2, hCMV gH + gL + UL128 + UL130 + UL131A …; assay: cell competition; competitor 4I22-biotin
[9] = molecular target: T2, hCMV gH + gL + UL128 + UL130 + UL131A …; assay: cell competition; competitor 4N10-biotin
[10] = molecular target: T2, hCMV gH + gL + UL128 + UL130 + UL131A …; assay: cell competition; competitor 2C12-biotin
[11] = molecular target: T2, hCMV gH + gL + UL128 + UL130 + UL131A …; assay: cell competition; competitor 8I21-biotin
[12] = molecular target: T3, hCMV UL128 (HEK293T transfectant) (hCMV, UniProt P16837 28-171); assay: cell-based or functional assay
T3 sequence: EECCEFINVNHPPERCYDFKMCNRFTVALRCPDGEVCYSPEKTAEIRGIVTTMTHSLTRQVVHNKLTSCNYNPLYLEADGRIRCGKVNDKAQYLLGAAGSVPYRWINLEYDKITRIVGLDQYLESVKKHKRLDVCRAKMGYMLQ

[13] = molecular target: T3, hCMV UL128 (HEK293T transfectant); assay: cell-based or functional assay; remark: listed apart in the source
[14] = molecular target: T2, hCMV gH + gL + UL128 + UL130 + UL131A …; assay: cell competition; competitor 10F7-biotin
[15] = molecular target: T4, hCMV gM + gN (HEK293T co-transfectant) (hCMV, UniProt P16733 1-372; P16795 22-138); assay: cell-based or functional assay
T4 sequence 1: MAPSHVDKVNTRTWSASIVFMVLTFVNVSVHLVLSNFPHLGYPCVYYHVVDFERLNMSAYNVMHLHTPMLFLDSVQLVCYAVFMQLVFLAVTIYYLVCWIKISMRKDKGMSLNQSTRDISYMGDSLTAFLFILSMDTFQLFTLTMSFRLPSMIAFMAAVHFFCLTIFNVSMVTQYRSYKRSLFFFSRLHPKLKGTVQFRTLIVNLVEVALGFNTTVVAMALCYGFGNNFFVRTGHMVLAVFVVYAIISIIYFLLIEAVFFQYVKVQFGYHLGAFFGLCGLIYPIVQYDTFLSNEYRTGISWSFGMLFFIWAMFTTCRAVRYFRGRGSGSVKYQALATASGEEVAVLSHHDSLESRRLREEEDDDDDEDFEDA
T4 sequence 2: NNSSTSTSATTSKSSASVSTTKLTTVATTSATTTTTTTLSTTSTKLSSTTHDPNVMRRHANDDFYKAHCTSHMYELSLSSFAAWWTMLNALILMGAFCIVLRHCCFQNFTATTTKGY

[16] = molecular target: T4, hCMV gM + gN (HEK293T co-transfectant); assay: cell-based or functional assay; remark: listed apart in the source

| Binder | Inhibition of binding (%) [3] [%] | Inhibition of binding (%) [4] [%] | Inhibition of binding (%) [5] [%] | Inhibition of binding (%) [6] [%] | Inhibition of binding (%) [7] [%] | Inhibition of binding (%) [8] [%] | Inhibition of binding (%) [9] [%] | Inhibition of binding (%) [10] [%] | Inhibition of binding (%) [11] [%] | also measured |
| --- | --- | --- | --- | --- | --- | --- | --- | --- | --- | --- |
| B1 | 0 | 95 | 0 | 0 | 0 | 0 | 90 | 0 | 100 | 50% neutralization VR1814, ARPE [1]: < 0.01 µg/mL; 50% neutralization VR1814, MRC-9 [1]: > 2 µg/mL; 90% neutralization VR1814, ARPE [2]: 0.03 µg/mL; 90% neutralization VR1814, MRC-9 [2]: > 10 µg/mL |
| B2 | 0 | 0 | 0 | 100 | 0 | 0 | 0 | 0 | 0 | 50% neutralization VR1814, ARPE [12]: < 0.001 µg/mL; 50% neutralization VR1814, MRC-9 [12]: > 2 µg/mL; 90% neutralization VR1814, ARPE [13]: 0.008 µg/mL; 90% neutralization VR1814, MRC-9 [13]: > 10 µg/mL; Inhibition of binding (%) [14]: 0% |
| B3 |  |  |  |  |  |  |  |  |  | 50% neutralization VR1814, ARPE [15]: ≤ 2 µg/mL; 90% neutralization VR1814, ARPE [16]: 10 µg/mL; 90% neutralization VR1814, MRC-9 [16]: 30 µg/mL |
